Data as given in patent US12076390 (Dana-Farber, dated 2024).

Experiments:
[1] = molecular target: Recombinant full length HA of H1 A/Puerto Rico/8/34 (H1-PR8) (influenza A virus A/Puerto Rico/8/34 …, UniProt P03452 18-565); test: recombinant HA; footnote says SPR biosensor, methods describe BLI
[2] = molecular target: Recombinant full length HA of H14 A/mallard/Astrakhan/263/82 (H14-AS82) (influenza A virus …, UniProt P26136 18-568); test: as above
[3] = molecular target: Recombinant full length HA of H1 A/Solomon Islands/3/06 (H1-SI06) (influenza A virus A/Solomon …); test: as above
[4] = molecular target: HA on infectious virus A/Brisbane/10/07 (H3N2-BR07) (influenza A virus A/Brisbane/10/07 …); test: cell-based or functional assay
[5] = molecular target: HA of A/Vietnam/1203/04 on pseudotyped virus (H5-VN04 pseudovirus) (influenza A virus A/Vietnam/1203/04 …); test: cell-based or functional assay
[6] = molecular target: Cell surface-expressed HA of A/Aichi/2/68 (H3-A2/68) (influenza A virus A/Aichi/2/68 (H3N2), UniProt P03437 17-566); test: flow cytometry on HA-transfected cells
[7] = molecular target: DTT reduced, trimeric HA2 (tHA2) of surface-expressed H3-A2/68 (influenza A virus A/Aichi/2/68 (H3N2), UniProt P03437 346-566); test: flow cytometry on HA-transfected cells after trypsin, pH 4.9 and DTT

B1: 3I14 IgG1 (antibody, V domains shown)
VH: QVQLLESGGGVVQPGRSLRLSCAASGFTFSNYGMHWVRQAPGKGLEWVAIISFDGSKKYYANSVKGRSTISRDNSKNTLSLQMNSLGPEDTALYYCAKLPSPYYFDSRFVWVAASAFHFWGQGILVTVSS
VL: NFMLTQPPSASGTPGQRVTISCSGSSSNIGGNTVHWFQQLPGTAPKLLIYTNSLRPSGVPDRFSGSKSGTSASLAISGLQSEDEADYYCAAWDDSLNGQVFGGGTKLTVL
[1]
  Kd: 0.08 nM
[2]
  Kd: 0.29 nM
[3]
  Kd: 0.03 nM
[4]
  IC50, neutralization of infectious H3-BR07 virus: 305 ng/mL
[5]
  IC50, neutralization of H5-VN04 pseudovirus: 81.6 ng/mL
  IC50, neutralization of pseudovirus: 2.14 µg/mL
[6]
  binding result: binds
[7]
  binding result: no binding
